Measured values: paper PMC2713385 (Journal of molecular biology, 2009)

Legend:
[1] = target: bacteriophage HK620 gp26-like tail needle (bacteriophage HK620); test: AUC
[2] = target: bacteriophage HK620 gp26-like tail needle (bacteriophage HK620); test: SDS-PAGE
[3] = target: bacteriophage Sf6 gp26-like tail needle (bacteriophage Sf6); test: AUC
[4] = target: bacteriophage Sf6 gp26-like tail needle (bacteriophage Sf6); test: SDS-PAGE
[5] = target: phage HS1 gp26-like tail needle (prophage HS1 of E. coli strain HS); test: AUC
[6] = target: phage HS1 gp26-like tail needle (prophage HS1 of E. coli strain HS); test: SDS-PAGE
AUC = target: the molecule itself; test: AUC

bacteriophage HK620 gp26-like tail needle (natural protein)
stoichiometry N [1]: 3 | stoichiometry N [2]: 3

bacteriophage Sf6 gp26-like tail needle (natural protein)
stoichiometry N [3]: 3 | stoichiometry N [4]: 3

phage HS1 gp26-like tail needle (natural protein)
stoichiometry N [5]: 3 | stoichiometry N [6]: 3

B1: bacteriophage P22 tail needle gp26 (natural protein, UniProt P35837 1-233, looked up)
chain: MADPSLNNPVVIQATRLDASILPRNVFSKSYLLYVIAQGTDVGAIAGKANEAGQGAYDAQVKNDEQDVELADHEARIKQLRIDVDDHESRITANTKAITALNVRVTTAEGEIASLQTNVSALDGRVTTAENNISALQADYVSKTATTSQSLASPLNVTTSYSVGGKKVLGARQTGWTAATGTANKGVFDADLTFAVSDTYTQSEIQAIANALITERRRTKALEDALRAHGLID
stoichiometry N (AUC): 3
